Measurements from the nanobody polyreactivity screen of Harvey et al. (2022).

Assay: yeast display, Sf9 membrane polyspecificity reagent, FACS + sequencing; frameworks hold sequencing errors
Summary of the method: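 A synthetic nanobody library was expressed on Saccharomyces cerevisiae BJ5465 by galactose induction for 36–48 hours. The library was stained for 1 hour at 4 °C with 10% biotinylated, detergent-solubilized Sf9 membrane reagent and enriched with streptavidin microbeads before FACS. Low and high (top ~1%) gates were set on anti-HA fluorescence for expression and streptavidin fluorescence for reagent binding, and each polyreactivity label reflects the gate of origin.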

Sequence | polyreactivity (PSR sort gate)
QVQLVESGGGLVQAGGSLRLSCAASGRTYHGYAMGWYRQAPGKERELVARINWSDGRTYYADSVKGRFTISRDNAKNTVYLQMNSLKPEDTAVYYCAADKTVSYAPAWYYYWGQGTQVNVSS | low polyreactivity
QVQLVESGGGLVQAGGSLRLSCAASGRTYQANTMGWYRQAPVKEREFVAAISTSVGSTYYADSVKGRFTISRDNAKNTVYLQMKSLKPEDTALFYCAKASQSWGRDDYYYWGQGTQVTVSS | low polyreactivity
QVQLVESGGGLVQAGGSLRLSCAASGRTYVDYAMGWYRQAPGKEREFDAAITWSGGSTYYADSVKGRFTISRDYAKNTVYLQMTSLKPEDTEVYYCNRDTNVGVLNYKFYDGPERDYWGQGTQVTVSS | low polyreactivity
QVQLVESGGGLVQAGGSLRLSCAASGRTYVSYAMGWYRQAPGKERELVATITGSTGGTYYADSVKGRFTISRDHAKNTVYLQMNSLKPEDTAVYYCNKDYYYNPGNVASGYDYWGQGTQVTVSS | low polyreactivity
QVQLVESGGGLVQAGGSLRLSCAASGRTYWHNTMGWYRQAPGKERELVAAINGGGGSTYYADSVKGRFTISRDNAKNTVYLQMNSLKPEDTAVYYCSARQGVVKGGRGYGYWGQGTQVTVSS | high polyreactivity
QVQLVESGGGLVQAGGSLRLSCAASGRTYYHYTMGWYRQAPGKERDLVAAITSGGSTYYADSVKGRFTMSRDNAKITVYVQMNSLKPEDTAVYYCARVRPLYHYSRYDYWGQGTQVTVSS | high polyreactivity
QVQLVESGGGLVQAGGSLRLSCAASGRYFGYNAMGWYRQAPGKERELVAAITGSGGSTYYADSVKGRFTISLDNAKHTVYLQIISLKPEDTAVYYCAADRFYHSAEYDYWGQGTQVTVSS | low polyreactivity
QVQLVESGGGLVQAGGSLRLSCAASGSALYAMGWYRQAPGKEMELVADISRRGGSTFYADSVKGRFTISRDKAKNTVYLQMNSLKPEDTAVYYCAAEFITYHGDDHYYWGQGTQVTVSS | low polyreactivity
QVQLVESGGGLVQAGGSLRLSCAASGSFFHDYSMGWYRQAPGKERELVAAIRWSGGSTYYADSVKGRFTISRDNAKNTVYVQMNSLKPEDTAVYYCNAVTFGRDNVQLVKFGYWGQGTQVTVSS | low polyreactivity
QVQLVESGGGLVQAGGSLRLSCAASGSIARNAMGWYRQAPGKERELVATISSGGGTYYADSVKGRFTISRDNAKNTVYLQMHSLKPEDTAVYYCAADGWEVPWPAIWDSLYEYWGQGTQVTVSS | high polyreactivity
QVQLVESGGGLVQAGGSLRLSCAASGSICGRYAMGWYRQAPGKDRELVAAIRWRSGSTYYADSVKGRFTISRDNAKNSVYLHMNSLKPEDTAVYYCAVQRSYVGPRQYNYWGQGTQVTVSS | high polyreactivity
QVQLVESGGGLVQAGGSLRLSCAASGSICWIYAMGWYRQAPGKERELVAAINVGGGSTYYADSVKGRFTISRDNAKNTVYLQMNSLKPEDTAVYYCAKGYQSPYKSQGYEYDYWGQGTQVTVSS | low polyreactivity
QVQLVESGGGLVQAGGSLRLSCAASGSIDNIYAMGWYRQAPGKERELVATITGIADSTYYADSVKGRFTISRDNAKNTVFLQMNSLKPEDTAVYYCAADKYVAEYDYWGQGTQVTVSS | low polyreactivity
QVQLVESGGGLVQAGGSLRLSCAASGSIFAAYAMGWYRQAPGKERELVAAISDRGGSTYYADSVKGRFTISRDNAKNTVYLQMNSLKPEDTAVYYCATSVYDVRGGPFYYWGQGTQVTVSS | high polyreactivity
QVQLVESGGGLVQAGGSLRLSCAASGSIFADNAMGWYRQAPGKERELVAAITRGGSTYYADSVKGRFTISRDNAKNTVYLQMNSLKPEDTAVYYCAAGTTTYSVNEVPVREGYDYWGQGTQVTVSS | low polyreactivity
QVQLVESGGGLVQAGGSLRLSCAASGSIFADYAMGWYRQAPGKERELVAAISYNGDSTYYADSVKGRFTISRDNAKNTVYLQMNSLKPEDTAVYYCNAAARRYTSVFYTSGYTFDYWGQGTQVTVSS | low polyreactivity
QVQLVESGGGLVQAGGSLRLSCAASGSIFADYAMGWYRQAPGKERELVAAITGSGGRTYYADSVKGRFTISRDNAKNTVYLQMNSLKPEDTAVYYCAAEGTTWYYDMDYWGQGTQVTVSS | low polyreactivity
QVQLVESGGGLVQAGGSLRLSCAASGSIFADYAMGWYRQAPGKERELVAVISRRGGTTYYADSVKGRFTISRDNAKNTVYLQMNSLKTEDTAVYYCAARRSFNEYDYWGQGSQVTVSS | high polyreactivity
QVQLVESGGGLVQAGGSLRLSCAASGSIFADYTMGCYRQAPGKERELVAAITGGGGRTYYADSVKGRFTISRDNAKNTVYLQMNSLKPEDTAVYYCAADFHDDHTSFDYWGQGTQVTVSS | low polyreactivity
QVQLVESGGGLVQAGGSLRLSCAASGSIFADYTMGWYRQAPGKERELVAAISSDDSTYYADSVKGRFTISRDNAKNTVYLQMNSLKPEDTAVYYCNADGSIGPEEYWGQGTQVTVSS | low polyreactivity
QVQLVESGGGLVQAGGSLRLSCAASGSIFADYVMGWYRQAPGKERELVAAITRRGRTYYADSVKGRFTISRDNAKNTVYLQMNSLIPEDTAVYYCAKVASGKIDSWGQGTQVTVSS | low polyreactivity
QVQLVESGGGLVQAGGSLRLSCAASGSIFAFYAMGWYRQAPGKERELVAVISVSDGSTYYADSVKGRFTISRDNAKNTVYLQMKSLKAEDTAVYYCAATPRGSYGYYYWGQGTQVTVSS | low polyreactivity

Sequence | polyreactivity (PSR sort gate)
QVQLVESGGGLVQAGGSLRLSCAASGSIFAGNAMGWYRQAPGRERELVAGITFGDDSTYYADSVKGRFTISRDNAKNTVYLQMNSLKPEDTAVYYCATDMHPYNYYFYHYWVDAAYDYWGQGTQVTVSS | low polyreactivity
QVQLVESGGGLVQAGGSLRLSCAASGSIFAGNTMGWYRQAPGKERELVARMTRAGSTYYADSVKGRFTITRDNAKNTVYLQMNSLKPEDTAVYYCASGPTGSLYRYYYWGQGSQVTVSS | high polyreactivity
QVQLVESGGGLVQAGGSLRLSCAASGSIFAGYAMGWYRQAPGKERELVATITSGGSTNYADSVKGRFTISRDNAKNTVYFHMNSLKPEVTAVYYCAADVEDSIPSSYTGGEYDYWGQCTQVTVSS | low polyreactivity
QVQLVESGGGLVQAGGSLRLSCAASGSIFAINAMGWYRQAPGKERELVARISWSGGRTYYADSVKVRFTISRDNAKNTVYLQMNSLKPEDTAVYYCAKRYYKSLNRDEFDSWGQGTQGTVSS | high polyreactivity
QVQLVESGGGLVQAGGSLRLSCAASGSIFAKNAMGWYRQAPGKERELVAAITFIGGDTYYADSVKGRFTISRDNAKNTVYLQMNSLKPEDTAVFYCNRALLVTSIYPYLFGSGWYDYWGQGTQVTVSS | low polyreactivity
QVQLVESGGGLVQAGGSLRLSCAASGSIFAKNAMGWYRQAPGKERELVAGIDFSGGSTYYADSVKGRFTLSRDNAKNTVYLQMNSLKPEDTAVYYCAADWAYKYELDYWGQGTQLTVSS | low polyreactivity
QVQLVESGGGLVQAGGSLRLSCAASGSIFAKYAMGWYRQAPGKERELVAAISSGGSTYYADSVKGRFTISRDNAKNTVYLQMNSLKPEDTAVYYCNKPYGKETRYTFKVWYEYNYWGQGTQVTVSS | low polyreactivity
QVQLVESGGGLVQAGGSLRLSCAASGSIFANAMGWYRQAPGKEREVVAAISFSGGRTFYADSVKGRFTISRDNAKNTVYLQMNSLKPEDTAVYYCAKGKKSSRSGIYNYWGQGTQVTVSS | high polyreactivity
QVQLVESGGGLVQAGGSLRLSCAASGSIFANNGMGWYRQAPGKERELVARISKRGGSTYYADSVKGRFTFSRDNAKNTVYLQMNSLKPEDTAVYYCNVRSWWGYTGPYDYWGQGTQVTVSS | high polyreactivity
QVQLVESGGGLVQAGGSLRLSCAASGSIFANYAMGWYRQAPGKERELVAAISRGGGTTYYADSVKGRFTISRDNAKNTVYLQMNSLKPEDTAVYYCAAARRYATQFHYDSWGQGTQVTVSS | high polyreactivity
QVQLVESGGGLVQAGGSLRLSCAASGSIFAPYAMGRYRQAPGKERELVAAISTTGGTTYYADSVKGRFTISRDNAKNTVYLQMNSLKPEDTAVYYCAADWSESFGKGGDYWGQGTQVTVSS | low polyreactivity
QVQLVESGGGLVQAGGSLRLSCAASGSIFAPYAMGWYRQAPGKERELVAAISSSGGSTYYADSVKGRFTISRDNAKNTLYLQMNSLKPEDTAVYYCAAETYHGLYDYWGQGTQVTVSS | low polyreactivity
QVQLVESGGGLVQAGGSLRLSCAASGSIFAQYTMGWYRQAPGKERELVAVISINGVSTYYADSVKGRFTISRDNAKNTVYLQMNSLKPEDTAVYYCNAGISPYEALGYWGQGTQVTVSS | low polyreactivity
QVQLVESGGGLVQAGGSLRLSCAASGSIFARNAMGWYRPAPGKERELVAVITTGGRTYYADSVKGRFTISRDNAKNTVYLQMNSLKPEDTAVYYCATRVIYGHSGGYWGQGTQVTVSS | high polyreactivity
QVQLVESGGGLVQAGGSLRLSCAASGSIFARNAMGWYRQAPGKERELVAAITWGGGITYYADSVKGRFTISRDNAKNTVYLQMNSLKPEDTAVYYCATDGYSYFTDRLDYWGQGTQVTVSS | low polyreactivity
QVQLVESGGGLVQAGGSLRLSCAASGSIFARNAMGWYRQAPGKERELVASITWSGASTYYADSVKGRFTISRDNAKNTVYLQMNSLKPADTSFYYSAATDQNLSLDYSSYEYRGQGTQVTVSS | low polyreactivity
QVQLVESGGGLVQAGGSLRLSCAASGSIFARNAMGWYRQAPGKERELVASITWSGASTYYADSVKGRFTISRDNAKNTVYLQMNSLKPEDTAVYYCAATDQKLSLDYSSYEYWGQGTQVTVSS | low polyreactivity
QVQLVESGGGLVQAGGSLRLSCAASGSIFARYAMGWDRQAPGKERELVAAISSRGGSTYYADSVKGRFTISRDNAKNTVYLQMNSLKPADTAVYYCNKGYLVRQGDYWGQGTQVTVSS | high polyreactivity
QVQLVESGGGLVQAGGSLRLSCAASGSIFARYAMGWYRQAPGKERELVAAIDQSAGSTYYADSVKGRFTISRDNAKNTVYLQMNSLKPEDTAVYYCNADYWYWWVITYVGPGLGYWGQGTQVTVSS | high polyreactivity
QVQLVESGGGLVQAGGSLRLSCAASGSIFARYAMGWYRQAPGKERELVAAISSNSASTYYADSVKGRFTISRDNAKNTVYLQMNSLKPEDTAVYYCATAYRSYWLTDYSGQGTQVTVSS | low polyreactivity
QVQLVESGGGLVQAGGSLRLSCAASGSIFARYTMGGYRPAPGKASELVAAISTSGSRTYYADSVKGRFTISRDNAKKTVYLQRYSLKPEDTAVYFCAARNGGRYAPGLDYWGQGTQVTVSS | high polyreactivity
